From US20250313631A1 (HUMMINGBIRD BIOSCIENCE PTE, published 2025)
Where two headings read alike, the source gives them in different places.

Experiments:
[1] = molecular target: T1, recombinant human VISTA (His-tagged) (human, UniProt Q9H7M9 33-194); assay: ELISA, plate coated with human VISTA
T1 construct: bought soluble protein (Sino Biological); also called hVISTA; human VISTA polypeptide

[2] = molecular target: T2, human B7H6 (human, UniProt Q68D85 25-262); assay: ELISA, plate coated with the antigen
T2 construct: also called NCR3LG1
T2 sequence (looked up): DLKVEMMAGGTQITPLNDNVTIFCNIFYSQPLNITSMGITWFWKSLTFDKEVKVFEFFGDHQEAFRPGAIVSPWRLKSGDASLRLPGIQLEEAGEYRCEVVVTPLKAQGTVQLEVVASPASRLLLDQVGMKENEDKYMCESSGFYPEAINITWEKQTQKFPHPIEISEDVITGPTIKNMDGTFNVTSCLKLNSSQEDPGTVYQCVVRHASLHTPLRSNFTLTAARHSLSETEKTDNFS

[3] = molecular target: T1, recombinant human VISTA (His-tagged); assay: antigen-binding ELISA; HMBD-002 in F4, day 10 at 40°C
[4] = molecular target: T1, recombinant human VISTA (His-tagged); assay: antigen-binding ELISA; HMBD-002 in F9, day 20 at 40°C
[5] = molecular target: T1, recombinant human VISTA (His-tagged); assay: antigen-binding ELISA; HMBD-002 10 mg/mL in F10, day 0
[6] = molecular target: T1, recombinant human VISTA (His-tagged); assay: ELISA on coated human VISTA, antibody diluted in buffer of pH 6.5
Procedure: (§1) 384-well plates were coated with 1 μg/ml of target antigen diluted in PBS for 16 hrs at 4° C. […] After washing, plates were developed with colorimetric detection substrate 3,3′,5,5′-tetramethylbenzidine (Turbo-TMB; Pierce) for 10 min.

[7] = molecular target: T1, recombinant human VISTA (His-tagged); assay: antigen-binding ELISA; HMBD-002 in F3, day 20 at 40°C
[8] = molecular target: T1, recombinant human VISTA (His-tagged); assay: antigen-binding ELISA; HMBD-002 in F10, day 30 at 40°C
[9] = molecular target: T1, recombinant human VISTA (His-tagged); assay: antigen-binding ELISA; reference standard run with the day 10 samples
[10] = molecular target: T3, human B7H7 (human, UniProt Q9UM44 23-344); assay: ELISA, plate coated with human B7H7, antibody titrated
T3 construct: also called HHLA2
T3 sequence (looked up): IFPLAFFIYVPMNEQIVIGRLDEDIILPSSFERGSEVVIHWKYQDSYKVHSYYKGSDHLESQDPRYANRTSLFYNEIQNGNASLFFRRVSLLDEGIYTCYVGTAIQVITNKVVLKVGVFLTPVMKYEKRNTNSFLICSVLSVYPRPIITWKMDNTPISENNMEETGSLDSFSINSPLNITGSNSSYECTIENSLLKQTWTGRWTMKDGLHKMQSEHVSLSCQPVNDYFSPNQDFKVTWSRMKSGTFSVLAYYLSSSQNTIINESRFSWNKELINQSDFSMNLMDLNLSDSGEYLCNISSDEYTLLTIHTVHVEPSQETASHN
Procedure: as §1

[11] = molecular target: T4, cynomolgus macaque VISTA expressed on cells (cynomolgus macaque, UniProt A0A7N9IB00 33-311); assay: flow cytometry, HEK293T cells expressing the NHP VISTA ortholog
T4 construct: whole, on cells; also called NHP VISTA on HEK293T cells; VISTA on NHP CD11b+ myeloid cells
Procedure: To identify myeloid cells, PBMCs were further incubated with CD45 FITC and CD11b PE. Cells were washed again and resuspended in 200 μL of FACS flow buffer (PBS with 5 mM EDTA) for flow cytometric analysis using MACSQuant 10 (Miltenyi). After acquisition, all raw data were analyzed using Flowlogic software. Cells were gated using forward and side scatter, and the percentage of positive cells was determined.

[12] = molecular target: T5, human PD-L1 (human, UniProt Q9NZQ7 19-239); assay: ELISA, target protein coated, % Binding against log M of antibody
T5 construct: captured through a His tag in the BLI experiments; also called hPD-L1; B7H1/PDL-1
Procedure: (§2) ELISAs were used to determine the binding specificity of the antibodies.
(§3) Briefly, 96-well plates (Nunc, Denmark) were coated with 1 μg/ml of target protein in phosphate-buffered saline (PBS) for 2 h at 37° C. After blocking for 1 h with 10% BSA in Tris buffer saline (TBS) at room temperature, the test antibody was serially diluted (12 point serial dilution) with the highest concentration being 30 μg/ml and added to the plate, in the. Post 1 h incubation at room temperature, plates were washed three times with TBS containing 0.05% Tween 20 (TBS-T) and were then incubated with a HRP-conjugated anti-mouse IgG antibody (Life Technologies, Inc., USA) for 1 h at room temperature. After washing, plates were developed with colorimetric detection substrate 3,3′,5,5′-tetramethylbenzidine (Turbo-TMB; Pierce, USA) for 15 min at room temperature.

[13] = molecular target: human HER3 (human, UniProt P21860 20-643); assay: as above
Procedure: as §2, §3

[14] = molecular target: T1, recombinant human VISTA (His-tagged); assay: as above
Procedure: as §2, §3

[15] = molecular target: T6, recombinant cynomolgus macaque VISTA (His-tagged) (cynomolgus macaque, UniProt A0A7N9IB00 33-194); assay: as above
T6 construct: also called cyno VISTA; cynomolgus monkey VISTA
Procedure: as §2, §3

[16] = molecular target: T7, recombinant mouse VISTA (His-tagged) (mouse, UniProt Q9D659 33-191); assay: as above
T7 construct: also called murine VISTA; mVISTA
T7 sequence (looked up): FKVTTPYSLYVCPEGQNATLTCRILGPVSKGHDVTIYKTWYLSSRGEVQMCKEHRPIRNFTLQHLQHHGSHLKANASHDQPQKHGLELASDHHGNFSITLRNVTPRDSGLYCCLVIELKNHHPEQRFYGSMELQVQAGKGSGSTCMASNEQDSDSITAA
Procedure: as §2, §3

[17] = molecular target: T2, human B7H6; assay: ELISA, plate coated with the antigen; remark: listed apart in the source
[18] = molecular target: human PD-1 (human, UniProt Q15116 25-167); assay: ELISA, plate coated with the antigen
[19] = molecular target: T3, human B7H7; assay: ELISA, plate coated with the antigen
[20] = molecular target: T8, human B7H4 (human, UniProt Q7Z7D3 25-258, limits assumed); assay: ELISA, plate coated with the antigen
T8 construct: also called VTCN1
T8 sequence (looked up): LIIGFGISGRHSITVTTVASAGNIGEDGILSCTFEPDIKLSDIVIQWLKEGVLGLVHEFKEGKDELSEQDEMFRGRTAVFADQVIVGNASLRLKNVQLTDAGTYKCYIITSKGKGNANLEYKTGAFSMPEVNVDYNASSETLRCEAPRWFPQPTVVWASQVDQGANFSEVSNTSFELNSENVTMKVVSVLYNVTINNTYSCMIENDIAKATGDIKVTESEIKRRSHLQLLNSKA

T5 sequence (Q9NZQ7 19-239 limits assumed): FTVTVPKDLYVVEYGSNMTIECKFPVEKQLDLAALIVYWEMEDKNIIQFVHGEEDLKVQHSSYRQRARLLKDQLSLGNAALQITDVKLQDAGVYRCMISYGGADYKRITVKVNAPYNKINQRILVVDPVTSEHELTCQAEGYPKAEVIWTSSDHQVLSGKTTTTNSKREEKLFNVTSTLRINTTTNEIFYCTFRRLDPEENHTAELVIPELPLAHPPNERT
Sequence of human PD-1 (Q15116 25-167 limits assumed): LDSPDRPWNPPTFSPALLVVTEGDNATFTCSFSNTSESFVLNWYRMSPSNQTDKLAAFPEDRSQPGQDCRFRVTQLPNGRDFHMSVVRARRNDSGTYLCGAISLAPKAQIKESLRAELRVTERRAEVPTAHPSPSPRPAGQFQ

B1: anti-VISTA clone V4-C26 IgG1 (antibody)
heavy: not shown
light: EIVLTQSPATLSLSPGERATLSCRASSSVGYIHWYQQKPGQAPRPIIYTTSNRATGIPARFSGSGSGTDNTLTISSLEPEDSAVYYCQQWSSYPPITFGGGTKLEVKRTVAAPSVFIFPPSDEQLKSGTASVVCLLNNFYPREAKVQWKVDNALQSGNSQESVTEQDSKDSTYSLSSTLTLSKADYEKHKVYACEVTHQGLSSPVTKSFNRGEC
Question: With B1 as the binder, how does the “EC50 (read off the curve)” value [1] read?
Answer: ~0.01 nM

Question: Does B1 bind [2]?
Answer: no binding (tested: log -7.5 M)

B2: V4-C26 hIgG4 (antibody)
heavy: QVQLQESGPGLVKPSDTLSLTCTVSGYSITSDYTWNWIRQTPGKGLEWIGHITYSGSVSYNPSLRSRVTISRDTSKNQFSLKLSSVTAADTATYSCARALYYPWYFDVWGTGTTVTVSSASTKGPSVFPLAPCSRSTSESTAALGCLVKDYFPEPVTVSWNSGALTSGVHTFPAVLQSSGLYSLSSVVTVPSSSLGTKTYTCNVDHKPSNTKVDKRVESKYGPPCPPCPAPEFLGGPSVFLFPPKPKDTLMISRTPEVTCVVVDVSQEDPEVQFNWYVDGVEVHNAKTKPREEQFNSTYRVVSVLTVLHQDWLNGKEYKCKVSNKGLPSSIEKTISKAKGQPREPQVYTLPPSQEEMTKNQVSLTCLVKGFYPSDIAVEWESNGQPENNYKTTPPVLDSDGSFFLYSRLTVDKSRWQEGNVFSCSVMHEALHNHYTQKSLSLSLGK
light: EIVLTQSPATLSLSPGERATLSCRASSSVGYIHWYQQKPGQAPRPIIYTTSNRATGIPARFSGSGSGTDNTLTISSLEPEDSAVYYCQQWSSYPPITFGGGTKLEVKRTVAAPSVFIFPPSDEQLKSGTASVVCLLNNFYPREAKVQWKVDNALQSGNSQESVTEQDSKDSTYSLSSTLTLSKADYEKHKVYACEVTHQGLSSPVTKSFNRGEC
notes: human IgG4 (S228P)/kappa format; also called HMBD-002; HMBD-002-V4C26
Question: How did the EC50 [3] turn out when B2 was run?
Answer: 0.0325 nM

Question: What about the EC50 [4] of the same binder?
Answer: 0.0223 nM

Question: And the EC50 [5]?
Answer: 0.0321 nM

Question: What about the EC50 [6] of the same binder?
Answer: 0.0363 nM

Question: What about the EC50 [7] of the same binder?
Answer: 0.0189 nM

Question: And the EC50 [8]?
Answer: 0.027 nM

Question: And the EC50 [9]?
Answer: 0.0253 nM

Question: Does B2 bind [10]?
Answer: no binding (tested: about 3e-8 M)

Question: What about the EC50 [11] of the same binder?
Answer: 2.57 nM

B3: anti-VISTA clone 4M2-C12 IgG1 (antibody)
heavy: not shown
light: DIVITQTPAILSTSPGEKVTMTCRASSSVGYIHWYQQKPGSSPKPWIYATSNLASGVPARFSGSGSGTSNSLTITRVEAEDAATYYCQQWSSYPPITFGGGTKLEVKRTVAAPSVFIFPPSDEQLKSGTASVVCLLNNFYPREAKVQWKVDNALQSGNSQESVTEQDSKDSTYSLSSTLTLSKADYEKHKVYACEVTHQGLSSPVTKSFNRGEC
notes: mouse variable regions on human IgG1/kappa constant regions; also called V4; V4pr
Question: Which results are given for B3?
Answer: binding result [12]: no binding (tested: about 10^-6.7 M (log M axis)); binding result [13]: no binding (tested: about 10^-6.2 M (log M axis)); EC50 [14]: 0.256 nM; EC50 [15]: 0.282 nM; EC50 [16]: 5.93 nM; binding result [17]: no binding (tested: log -7.5 M); binding result [18]: no binding (tested: log -7.5 M); binding result [19]: no binding (tested: log -7.5 M); binding result [20]: no binding (tested: log -7.5 M)
